Source: patent US20240368617A1, “NPR1 VARIANT TO ENHANCE PLANT RESISTANCE TO BIOTIC AND ABIOTIC STRESSES AND METHOD THEREOF” (Duke University, published 2024)
Residue numbers refer to the chain shown, from its start.

Experiments:
[1] = target: T1, Full-length Arabidopsis NPR1 with C-terminal Strep tag, expressed in E. coli (NPR1-Strep3) (Arabidopsis thaliana, UniProt P93002 1-593); assay: cryo-EM of BS3 cross-linked NPR1-TGA3-LS7 DNA complex
T1 construct: Full-length NPR1; Homodimer; Purified with 0.2 mM salicylic acid; also called WT NPR1; not shown: C-terminal Strep tag (Strep3) with its last Lys mutated to Arg
T1 sequence: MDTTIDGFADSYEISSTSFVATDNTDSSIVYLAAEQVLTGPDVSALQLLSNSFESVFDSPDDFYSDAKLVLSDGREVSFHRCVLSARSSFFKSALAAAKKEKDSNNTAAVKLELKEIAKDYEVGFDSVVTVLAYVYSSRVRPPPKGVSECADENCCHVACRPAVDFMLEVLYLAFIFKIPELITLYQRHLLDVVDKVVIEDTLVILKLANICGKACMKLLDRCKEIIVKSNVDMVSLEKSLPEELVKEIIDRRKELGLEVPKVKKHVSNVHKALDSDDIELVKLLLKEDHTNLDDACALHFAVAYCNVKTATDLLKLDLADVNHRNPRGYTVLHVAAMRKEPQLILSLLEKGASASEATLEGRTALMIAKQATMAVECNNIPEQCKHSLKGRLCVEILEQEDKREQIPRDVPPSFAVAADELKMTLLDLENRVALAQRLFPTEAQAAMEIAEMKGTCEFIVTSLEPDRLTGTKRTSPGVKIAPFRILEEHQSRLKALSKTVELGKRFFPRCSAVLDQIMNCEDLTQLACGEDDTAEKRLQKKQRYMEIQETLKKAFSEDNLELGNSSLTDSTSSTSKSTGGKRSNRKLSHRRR
Experimental: 2. NPR1 TGA3 LS7-DNA cryo-EM sample preparation. The purified NPR1-Strep3 (20 μM), TGA3-Flag-HA (48 μM) and the LS7 DNA containing a palindromic TGA-binding site (underlined in 5′-[…]-3′, 57.6 μM) were mixed and incubated at 4° C. for 30 min. The protein-DNA complex was cross-linked with 1.5 mM BS3 (Thermo Fisher Scientific) at room temperature for 30 min and quenched with 50 mM Tris (pH 8.0). The protein-DNA mixture was further purified using a Strep-Tactin column (Qiagen) and size-exclusion chromatography (Superose 6 in-crease 10/300 GL, Cytiva) in a buffer containing 25 mM HEPES (pH 7.5), 150 mM NaCl, 2 mM DTT and 0.2 mM SA.
3. Cryo-EM sample preparation and data collection. Cryo-EM grids containing the NPR1-TGA3-LS7-DNA complex were prepared using the Leica EM GP2 Automatic Plunge Freezer at 4° C. and 85% humidity. The UltrAuFoil R1.2/1.3 300-mesh grids (Quantifoil) were glow-discharged using the PELCO easiGlow Glow Discharge Cleaning System (Ted Pella). A 3 μl sample of NPR1-TGA3-LS7-DNA (˜1.3 mg/ml) was applied to the grid, incubated for 60 s in the chamber and blotted for 2.4 s with Whatman No. 1 filter paper (Whatman International) to re-move excess sample, and then plunge-frozen into liquid ethane cooled by liquid nitrogen. […]

[2] = target: the molecule itself; assay: cryo-EM of the NPR1-TGA3 complex; self-association
[3] = target: T2, npr1(L281D)-HA (Arabidopsis thaliana, UniProt P93002 1-593); assay: co-immunoprecipitation after transient co-expression in N. benthamiana
T2 construct: not shown: C-terminal HA tag from vector pLN462
T2 sequence: T1 sequence with L281D
Experimental: (§1) For plant transformations, the Agrobacterium tumefaciens strain GV3101 was transformed with plant binary vectors carrying the indicated transgenes. For stable expression in Arabidopsis, a floral dipping method was used. For transient expression in N. benthamiana, the Agrobacterium carrying the indicated construct was cultured over-night at 28° C. in LB broth medium supplemented with appropriate antibiotics: spectinomycin (100 μg ml-1), kanamycin (50 μg ml-1), gentamycin (50 μg ml-1) and rifampicin (25 μg ml-1). The obtained culture was re-inoculated at 1:10 into fresh growth medium with antibiotics and grown for another 4 h. Cells were then centrifuged at 1,600g for 10 min, and inoculum was prepared by resuspending cells to an OD600 of 1 in double-distilled water containing 200 μM acetosyringone (Sigma-Aldrich). The co-expression assays were per-formed with a 1:1 mixture of Agrobacteria inoculums. The inoculum was pressure-infiltrated into N. benthamiana leaves at the abaxial side using 1 ml syringe without the needle.
(§2) Recombinant protein analysis, co-immunoprecipitation and cell-free oligomerization were performed using total protein extracts from the transient expression assay in N. benthamiana as described previously. Interaction analysis of NPR1-HA with TGA3-mRFP or NPR1-GFP (self-interaction), was performed in vivo by transiently co-expressing the two proteins in N. benthamiana followed by treatment with water (mock) or 1 mM SA for 5 h. Total protein was extracted and used for co-immunoprecipitation with anti-RFP or anti-HA beads, respectively. In the NPR1-HA/TGA3-mRFP interaction experiments the npr1-1-HA was used as a negative control. Interaction between GST-NPR1 and Myc-CUL3A was performed by co-expression in E. coli as described. For western blotting under reducing conditions, the SDS sample buffer was added to the protein extracts from a 4× stock solution supplemented with 50 mM DTT and 715 mM B-mercaptoethanol. For western blotting under non-reducing conditions, a DDT-and B-mercaptoethanol-free SDS sample buffer was used. […]

[4] = target: T3, npr1(A151P/D152R)-HA (Arabidopsis thaliana, UniProt P93002 1-593); assay: as above
T3 construct: not shown: C-terminal HA tag from vector pLN462
T3 sequence: T1 sequence with A151P, D152R
Experimental: as §1, §2

[5] = target: T4, npr1(L284D)-HA (Arabidopsis thaliana, UniProt P93002 1-593); assay: as above
T4 construct: not shown: C-terminal HA tag from vector pLN462
T4 sequence: T1 sequence with L284D
Experimental: as §1, §2

B1: Arabidopsis TGA3 (Asn87-Thr384) with C-terminal tandem Flag-HA tag (other, Arabidopsis thaliana, UniProt Q39234 87-384, looked up)
chain: NNDQDEDRINDKMKRRLAQNREAARKSRLRKKAHVQQLEESRLKLSQLEQELVRARQQGLCVRNSSDTSYLGPAGNMNSGIAAFEMEYTHWLEEQNRRVSEIRTALQAHIGDIELKMLVDSCLNHYANLFRMKADAAKADVFFLMSGMWRTSTERFFQWIGGFRPSELLNVVMPYVEPLTDQQLLEVRNLQQSSQQAEEALSQGLDKLQQGLVESIAIQIKVVESVNHGAPMASAMENLQALESFVNQADHLRQQTLQQMSKILTTRQAARGLLALGEYFHRLRALSSLWAARPREHT
notes: range 87-384; E. coli expressed; His10-MBP removed with PreScission protease; two dimers per NPR1 dimer in the full complex; also called TGA3-Flag-HA; not shown: C-terminal tandem Flag-HA tag
binding result [1]: binds
binding result [2]: binds

B2: TGA3-mRFP (other, Arabidopsis thaliana, UniProt Q39234 1-384, looked up)
chain: MEMMSSSSSTTQVVSFRDMGMYEPFQQLSGWESPFKSDINNITSNQNNNQSSSTTLEVDARPEADDNNRVNYTSVYNNSLEAEPSSNNDQDEDRINDKMKRRLAQNREAARKSRLRKKAHVQQLEESRLKLSQLEQELVRARQQGLCVRNSSDTSYLGPAGNMNSGIAAFEMEYTHWLEEQNRRVSEIRTALQAHIGDIELKMLVDSCLNHYANLFRMKADAAKADVFFLMSGMWRTSTERFFQWIGGFRPSELLNVVMPYVEPLTDQQLLEVRNLQQSSQQAEEALSQGLDKLQQGLVESIAIQIKVVESVNHGAPMASAMENLQALESFVNQADHLRQQTLQQMSKILTTRQAARGLLALGEYFHRLRALSSLWAARPREHT
notes: Transiently co-expressed in N. benthamiana; pulled down with anti-RFP beads; also called AtTGA3; AT1G22070; not shown: C-terminal mRFP from vector pSITE-4NB
binding result [3]: no binding
binding result [4]: no binding
binding result [5]: no binding
